Data reported in patent publication US20160145308A1 (SANFORD BURNHAM MEDICAL RESEARCH INSTITUTE, published 2016).
Where no end group is shown, it is not given here. The star is where a group is joined. FITC = O=C1OC2(c3ccc(O)cc3Oc3cc(O)ccc32)c2ccc(NC(=S)*)cc21

T1: CNGB3-MYC/His fusion protein (human, UniProt Q9NQW8 1-809)
T1 construct: Full-length CNGB3 cDNA in pcDNA3.1/myc-His-B, expressed in HeLa and HEK293T cells; also called recombinant CNGB3; not shown: C-terminal myc-His tag from the pcDNA3.1/myc-His-B vector
T1 sequence: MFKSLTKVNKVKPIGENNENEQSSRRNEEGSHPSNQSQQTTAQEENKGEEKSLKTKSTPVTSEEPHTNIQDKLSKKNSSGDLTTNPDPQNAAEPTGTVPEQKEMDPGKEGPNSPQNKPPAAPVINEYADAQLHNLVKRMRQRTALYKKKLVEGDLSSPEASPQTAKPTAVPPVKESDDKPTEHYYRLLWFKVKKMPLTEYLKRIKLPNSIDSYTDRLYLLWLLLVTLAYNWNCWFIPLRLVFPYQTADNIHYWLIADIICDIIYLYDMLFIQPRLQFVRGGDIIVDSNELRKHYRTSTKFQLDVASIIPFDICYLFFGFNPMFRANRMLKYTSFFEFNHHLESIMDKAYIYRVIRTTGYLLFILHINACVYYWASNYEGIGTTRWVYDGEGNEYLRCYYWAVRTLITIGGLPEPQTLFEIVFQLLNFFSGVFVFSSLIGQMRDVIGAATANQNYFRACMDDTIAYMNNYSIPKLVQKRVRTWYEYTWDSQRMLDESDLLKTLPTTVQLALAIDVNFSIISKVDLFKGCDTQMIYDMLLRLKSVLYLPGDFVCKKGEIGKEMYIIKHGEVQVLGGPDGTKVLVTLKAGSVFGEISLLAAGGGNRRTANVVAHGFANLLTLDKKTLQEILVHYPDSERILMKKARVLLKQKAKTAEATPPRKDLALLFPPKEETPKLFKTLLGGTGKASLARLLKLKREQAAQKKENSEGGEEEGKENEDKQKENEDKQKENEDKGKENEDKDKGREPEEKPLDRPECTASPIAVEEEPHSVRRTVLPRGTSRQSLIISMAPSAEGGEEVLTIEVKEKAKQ


Columns and labels:
[1] = target: T1, CNGB3-MYC/His fusion protein; assay: fluorescence microscopy of HeLa cells transfected with CNGB3-MYC; FITC-z13 in the culture medium
Protocol: When FITC-z13 was added to culture medium of CNGB3-MYC-expressing HeLa cells, FITC-z13 bound to sites marked by MYC-epitope expression. […] Antibody specificity was validated by immunostaining of CNGB3-Myc expressed in HeLa cells. This antibody strongly stained glandular epithelia of endometriosis in tissue sections.
CNGB3 cDNA was kindly provided by Dr. Hisao Ueyama, Department of Ophthalomology, Shiga University of Medical Science, Japan. cDNA encoding full-length CNGB3 was excised by HindIII and BsrGI and ligated into the HindIII and Asp718I sites of pcDNA3.1/myc-His-B vector (Invitrogen). HeLa cells were transfected with this vector, and expression of CNGB3-MYC/His fusion protein was determined by immunohistochemistry with an anti-MYC antibody and the anti-CNGB3 antibody (clone 3B2) described above. To test binding of z13 peptide to CNGB3, FITC-z13 was added (5 μg/ml) to the medium of HeLa cells transfected by the above-described vector and incubated at 37° C. for 15 min. Cells were washed with PBS, fixed with 4% PFA in PBS, and observed under a fluorescence microscope.

[2] = target: T1, CNGB3-MYC/His fusion protein; assay: fluorescence microscopy of CNGB3-MYC expressing HEK293T cells, 37° C. for 30 min, Alexa 488-conjugated avidin
Protocol: When dKLAK-z13 was added to culture medium of HEK293T cells transfected by expression vector for CNGB3-MYC, apoptosis was not induced, however. It was realized that this lack of effect could be due to the fact that receptor-bound dKLAK-z13 localizes to the luminal side of endosomes, a prediction supported by the endosome-like pattern of fluorescent z13. To release dKLAK-z13 from the endosomes to the cytoplasm, an endosome-escaping 18-mer peptide […] (SEQ ID NO:38; here abbreviated as HLAH) was devised by replacing lysines in KLAKLAK (SEQ ID NO:39) with histidines, to provide histidine-rich sequences capable of destabilizing endosome membranes at acidic pH (Midoux et al., 2002; Pichon et al., 2001). […] For this experiment, biotin-z13 was bound to CNGB3-MYC expressing HEK293T cells at 37° C. for 30 min with or without HLAH-z13. Cells were stained by Alexa 488-conjugated avidin followed by DAPI nuclear staining.

binding result [1]	binding result [2]	Binder
binds		{FITC}-VRRADNRPG (Synthetic fluorescence-tagged z13 peptide; also called fluorescent FITC-z13; z13 peptide with an N-terminal FITC-tag) [FITC-z13]
	binds	VRRADNRPG (also: biotinylated (position not given here), also called biotin-z13) [biotinylated z13]
